From patent US20230220035A1 (DONG-A ST CO., LTD., published 2023)
*1 amine or outer side, *2 acyl side, *3 side chain or, on linkers, in order; H or OH if unused. Side-chain parts run from the residue outwards. [ ]: non-standard residue; d: D form. The star is where a group is joined. C18 diacid = O=C(O)CCCCCCCCCCCCCCCCC(=O)*; γGlu = O=C(O)[C@H](CCC(=O)[*:2])N[*:1]; Stearoyl = CCCCCCCCCCCCCCCCCC(=O)*; Palmitoyl = CCCCCCCCCCCCCCCC(=O)*; AEEA = NCCOCCOCC(=O)O; Aib = CC(C)(N)C(=O)O

B1: Comparative Example Compound 9 (peptide)
peptide: H-H[Aib]QGTFTSDK([AEEA-AEEA-γGlu-Stearoyl])SKYLD[Aib]RRAQDFVQWLMNTKEYEK(Palmitoyl)EYE-OH
SMILES: CCCCCCCCCCCCCCCCCC(=O)N[C@@H](CCC(=O)NCCOCCOCC(=O)NCCOCCOCC(=O)NCCCC[C@H](NC(=O)[C@H](CC(=O)O)NC(=O)[C@H](CO)NC(=O)[C@@H](NC(=O)[C@H](Cc1ccccc1)NC(=O)[C@@H](NC(=O)CNC(=O)[C@H](CCC(N)=O)NC(=O)C(C)(C)NC(=O)[C@@H](N)Cc1c[nH]cn1)[C@@H](C)O)[C@@H](C)O)C(=O)N[C@@H](CO)C(=O)N[C@@H](CCCCN)C(=O)N[C@@H](Cc1ccc(O)cc1)C(=O)N[C@@H](CC(C)C)C(=O)N[C@@H](CC(=O)O)C(=O)NC(C)(C)C(=O)N[C@@H](CCCNC(=N)N)C(=O)N[C@@H](CCCNC(=N)N)C(=O)N[C@@H](C)C(=O)N[C@@H](CCC(N)=O)C(=O)N[C@@H](CC(=O)O)C(=O)N[C@@H](Cc1ccccc1)C(=O)N[C@H](C(=O)N[C@@H](CCC(N)=O)C(=O)N[C@@H](Cc1c[nH]c2ccccc12)C(=O)N[C@@H](CC(C)C)C(=O)N[C@@H](CCSC)C(=O)N[C@@H](CC(N)=O)C(=O)N[C@H](C(=O)N[C@@H](CCCCN)C(=O)N[C@@H](CCC(=O)O)C(=O)N[C@@H](Cc1ccc(O)cc1)C(=O)N[C@@H](CCC(=O)O)C(=O)N[C@@H](CCCCNC(=O)CCCCCCCCCCCCCCC)C(=O)N[C@@H](CCC(=O)O)C(=O)N[C@@H](Cc1ccc(O)cc1)C(=O)N[C@@H](CCC(=O)O)C(=O)O)[C@@H](C)O)C(C)C)C(=O)O
B2: Compound 4 (peptide)
peptide: H-H[Aib]QGTFTSDK([AEEA-AEEA-γGlu-Stearoyl])SKYLD[Aib]RRAQDFVQWLMNTKEYEK([Lys-C18 diacid])EYE-OH
B3: Compound 6 (peptide)
peptide: H-H[Aib]QGTFTSDK([AEEA-AEEA-γGlu-Stearoyl])SKYLD[Aib]RRAQDFVQWLMNTKEYEK([Lys-AEEA-AEEA-AEEA-γGlu-C18 diacid])EYE-OH
B4: Compound 2 (peptide)
peptide: H-H[Aib]QGTFTSDK([AEEA-AEEA-γGlu-Stearoyl])SKYLD[Aib]RRAQDFVQWLMNTKEYEK(15‑carboxy‑1‑oxopentadecyl)EYE-OH
B5: Comparative Example Compound 8 (peptide)
peptide: H-H[Aib]QGTFTSDK([AEEA-AEEA-γGlu-Stearoyl])SKYLD[Aib]RRAQDFVQWLMNTK-OH
SMILES: CCCCCCCCCCCCCCCCCC(=O)N[C@@H](CCC(=O)NCCOCCOCC(=O)NCCOCCOCC(=O)NCCCC[C@H](NC(=O)[C@H](CC(=O)O)NC(=O)[C@H](CO)NC(=O)[C@@H](NC(=O)[C@H](Cc1ccccc1)NC(=O)[C@@H](NC(=O)CNC(=O)[C@H](CCC(N)=O)NC(=O)C(C)(C)NC(=O)[C@@H](N)Cc1c[nH]cn1)[C@@H](C)O)[C@@H](C)O)C(=O)N[C@@H](CO)C(=O)N[C@@H](CCCCN)C(=O)N[C@@H](Cc1ccc(O)cc1)C(=O)N[C@@H](CC(C)C)C(=O)N[C@@H](CC(=O)O)C(=O)NC(C)(C)C(=O)N[C@@H](CCCNC(=N)N)C(=O)N[C@@H](CCCNC(=N)N)C(=O)N[C@@H](C)C(=O)N[C@@H](CCC(N)=O)C(=O)N[C@@H](CC(=O)O)C(=O)N[C@@H](Cc1ccccc1)C(=O)N[C@H](C(=O)N[C@@H](CCC(N)=O)C(=O)N[C@@H](Cc1c[nH]c2ccccc12)C(=O)N[C@@H](CC(C)C)C(=O)N[C@@H](CCSC)C(=O)N[C@@H](CC(N)=O)C(=O)N[C@H](C(=O)N[C@@H](CCCCN)C(=O)O)[C@@H](C)O)C(C)C)C(=O)O
B6: Comparative Example Compound 12 (peptide)
peptide: H-H[Aib]QGTFTSDK([AEEA-AEEA-γGlu-Stearoyl])SKYLD[Aib]RRAQDFVQWLMNTKEYEK([AEEA-AEEA-AEEA-Palmitoyl])EYE-OH
SMILES: CCCCCCCCCCCCCCCCCC(=O)N[C@@H](CCC(=O)NCCOCCOCC(=O)NCCOCCOCC(=O)NCCCC[C@H](NC(=O)[C@H](CC(=O)O)NC(=O)[C@H](CO)NC(=O)[C@@H](NC(=O)[C@H](Cc1ccccc1)NC(=O)[C@@H](NC(=O)CNC(=O)[C@H](CCC(N)=O)NC(=O)C(C)(C)NC(=O)[C@@H](N)Cc1c[nH]cn1)[C@@H](C)O)[C@@H](C)O)C(=O)N[C@@H](CO)C(=O)N[C@@H](CCCCN)C(=O)N[C@@H](Cc1ccc(O)cc1)C(=O)N[C@@H](CC(C)C)C(=O)N[C@@H](CC(=O)O)C(=O)NC(C)(C)C(=O)N[C@@H](CCCNC(=N)N)C(=O)N[C@@H](CCCNC(=N)N)C(=O)N[C@@H](C)C(=O)N[C@@H](CCC(N)=O)C(=O)N[C@@H](CC(=O)O)C(=O)N[C@@H](Cc1ccccc1)C(=O)N[C@H](C(=O)N[C@@H](CCC(N)=O)C(=O)N[C@@H](Cc1c[nH]c2ccccc12)C(=O)N[C@@H](CC(C)C)C(=O)N[C@@H](CCSC)C(=O)N[C@@H](CC(N)=O)C(=O)N[C@H](C(=O)N[C@@H](CCCCN)C(=O)N[C@@H](CCC(=O)O)C(=O)N[C@@H](Cc1ccc(O)cc1)C(=O)N[C@@H](CCC(=O)O)C(=O)N[C@@H](CCCCNC(=O)COCCOCCNC(=O)COCCOCCNC(=O)COCCOCCNC(=O)CCCCCCCCCCCCCCC)C(=O)N[C@@H](CCC(=O)O)C(=O)N[C@@H](Cc1ccc(O)cc1)C(=O)N[C@@H](CCC(=O)O)C(=O)O)[C@@H](C)O)C(C)C)C(=O)O
B7: Comparative Example Compound 11 (peptide)
peptide: H-H[Aib]QGTFTSDK([AEEA-AEEA-γGlu-Stearoyl])SKYLD[Aib]RRAQDFVQWLMNTKEYEK(15‑aminocarboxy‑1‑oxopentadecyl)EYE-OH
B8: Comparative Example Compound 10 (peptide)
peptide: H-H[Aib]QGTFTSDK([AEEA-AEEA-γGlu-Stearoyl])SKYLD[Aib]RRAQDFVQWLMNTKEYEK(13‑aminocarboxy‑1‑oxotridecyl)EYE-OH
B9: Compound 7 (peptide)
peptide: H-H[Aib]QGTFTSDK([AEEA-AEEA-γGlu-Stearoyl])SKYLD[Aib]RRAQDFVQWLMNTKEYEK(17‑aminocarboxy‑1‑oxoheptadecyl)EYE-OH
B10: Compound 3 (peptide)
peptide: H-H[Aib]QGTFTSDK([AEEA-AEEA-γGlu-Stearoyl])SKYLD[Aib]RRAQDFVQWLMNTKEYEK(C18 diacid)EYE-OH
SMILES: CCCCCCCCCCCCCCCCCC(=O)N[C@@H](CCC(=O)NCCOCCOCC(=O)NCCOCCOCC(=O)NCCCC[C@H](NC(=O)[C@H](CC(=O)O)NC(=O)[C@H](CO)NC(=O)[C@@H](NC(=O)[C@H](Cc1ccccc1)NC(=O)[C@@H](NC(=O)CNC(=O)[C@H](CCC(N)=O)NC(=O)C(C)(C)NC(=O)[C@@H](N)Cc1c[nH]cn1)[C@@H](C)O)[C@@H](C)O)C(=O)N[C@@H](CO)C(=O)N[C@@H](CCCCN)C(=O)N[C@@H](Cc1ccc(O)cc1)C(=O)N[C@@H](CC(C)C)C(=O)N[C@@H](CC(=O)O)C(=O)NC(C)(C)C(=O)N[C@@H](CCCNC(=N)N)C(=O)N[C@@H](CCCNC(=N)N)C(=O)N[C@@H](C)C(=O)N[C@@H](CCC(N)=O)C(=O)N[C@@H](CC(=O)O)C(=O)N[C@@H](Cc1ccccc1)C(=O)N[C@H](C(=O)N[C@@H](CCC(N)=O)C(=O)N[C@@H](Cc1c[nH]c2ccccc12)C(=O)N[C@@H](CC(C)C)C(=O)N[C@@H](CCSC)C(=O)N[C@@H](CC(N)=O)C(=O)N[C@H](C(=O)N[C@@H](CCCCN)C(=O)N[C@@H](CCC(=O)O)C(=O)N[C@@H](Cc1ccc(O)cc1)C(=O)N[C@@H](CCC(=O)O)C(=O)N[C@@H](CCCCNC(=O)CCCCCCCCCCCCCCCCC(=O)O)C(=O)N[C@@H](CCC(=O)O)C(=O)N[C@@H](Cc1ccc(O)cc1)C(=O)N[C@@H](CCC(=O)O)C(=O)O)[C@@H](C)O)C(C)C)C(=O)O
B11: Compound 5 (peptide)
peptide: H-H[Aib]QGTFTSDK([AEEA-AEEA-γGlu-Stearoyl])SKYLD[Aib]RRAQDFVQWLMNTKEYEK([AEEA-AEEA-AEEA-γGlu-C18 diacid])EYE-OH
SMILES: CCCCCCCCCCCCCCCCCC(=O)N[C@@H](CCC(=O)NCCOCCOCC(=O)NCCOCCOCC(=O)NCCCC[C@H](NC(=O)[C@H](CC(=O)O)NC(=O)[C@H](CO)NC(=O)[C@@H](NC(=O)[C@H](Cc1ccccc1)NC(=O)[C@@H](NC(=O)CNC(=O)[C@H](CCC(N)=O)NC(=O)C(C)(C)NC(=O)[C@@H](N)Cc1c[nH]cn1)[C@@H](C)O)[C@@H](C)O)C(=O)N[C@@H](CO)C(=O)N[C@@H](CCCCN)C(=O)N[C@@H](Cc1ccc(O)cc1)C(=O)N[C@@H](CC(C)C)C(=O)N[C@@H](CC(=O)O)C(=O)NC(C)(C)C(=O)N[C@@H](CCCNC(=N)N)C(=O)N[C@@H](CCCNC(=N)N)C(=O)N[C@@H](C)C(=O)N[C@@H](CCC(N)=O)C(=O)N[C@@H](CC(=O)O)C(=O)N[C@@H](Cc1ccccc1)C(=O)N[C@H](C(=O)N[C@@H](CCC(N)=O)C(=O)N[C@@H](Cc1c[nH]c2ccccc12)C(=O)N[C@@H](CC(C)C)C(=O)N[C@@H](CCSC)C(=O)N[C@@H](CC(N)=O)C(=O)N[C@H](C(=O)N[C@@H](CCCCN)C(=O)N[C@@H](CCC(=O)O)C(=O)N[C@@H](Cc1ccc(O)cc1)C(=O)N[C@@H](CCC(=O)O)C(=O)N[C@@H](CCCCNC(=O)COCCOCCNC(=O)COCCOCCNC(=O)COCCOCCNC(=O)CC[C@H](NC(=O)CCCCCCCCCCCCCCCCC(=O)O)C(=O)O)C(=O)N[C@@H](CCC(=O)O)C(=O)N[C@@H](Cc1ccc(O)cc1)C(=O)N[C@@H](CCC(=O)O)C(=O)O)[C@@H](C)O)C(C)C)C(=O)O

target: Human GLP-1 receptor (human, UniProt P43220); experiment: cell-based or functional assay

**Q.** B1 was tested. Which “Maximum activation (% vs GLP-1)” value did it give?
**A.** 70.4%

**Q.** With B2 as the binder, how does the “Maximum activation (% vs GLP-1)” value read?
**A.** 87.9%

**Q.** With B3 as the binder, how does the “Maximum activation (% vs GLP-1)” value read?
**A.** 83.8%

**Q.** B4 was tested. Which “Maximum activation (% vs GLP-1)” value did it give?
**A.** 104%

**Q.** Which results are given for B5?
**A.** EC50: < 0.1 nM; Maximum activation (% vs GLP-1): 99.3%

**Q.** B6 was tested. Which EC50 did it give?
**A.** < 0.1 nM

**Q.** And the “Maximum activation (% vs GLP-1)” value?
**A.** 102%

**Q.** B7 was tested. Which EC50 did it give?
**A.** < 0.1 nM

**Q.** And the “Maximum activation (% vs GLP-1)” value?
**A.** 92.8%

**Q.** With B8 as the binder, how does the EC50 read?
**A.** < 0.1 nM

**Q.** What about the “Maximum activation (% vs GLP-1)” value of the same binder?
**A.** 105%

**Q.** For B9, which EC50 is on record?
**A.** < 0.1 nM

**Q.** What about the “Maximum activation (% vs GLP-1)” value of the same binder?
**A.** 90.8%

**Q.** With B10 as the binder, how does the “Maximum activation (% vs GLP-1)” value read?
**A.** 98.3%

**Q.** With B11 as the binder, how does the “Maximum activation (% vs GLP-1)” value read?
**A.** 93.6%

target: Human glucagon receptor (human, UniProt P47871); experiment: cell-based or functional assay

**Q.** B1 was tested. Which “Maximum activation (% vs GCG)” value did it give?
**A.** 73.3%

**Q.** For B2, which EC50 is on record?
**A.** ≥ 1 nM

**Q.** And the “Maximum activation (% vs GCG)” value?
**A.** 95.4%

**Q.** B3 was tested. Which “Maximum activation (% vs GCG)” value did it give?
**A.** 89.1%

**Q.** How did the “Maximum activation (% vs GCG)” value turn out when B4 was run?
**A.** 100%

**Q.** Which EC50 does the source give for B5 here?
**A.** < 0.1 nM

**Q.** And the “Maximum activation (% vs GCG)” value?
**A.** 103%

**Q.** Which results are given for B6?
**A.** EC50: < 0.1 nM; Maximum activation (% vs GCG): 89.6%

**Q.** Which results are given for B7?
**A.** EC50: < 0.1 nM; Maximum activation (% vs GCG): 98.5%

**Q.** B8 was tested. Which EC50 did it give?
**A.** < 0.1 nM

**Q.** What about the “Maximum activation (% vs GCG)” value of the same binder?
**A.** 110%

**Q.** With B9 as the binder, how does the EC50 read?
**A.** < 0.1 nM

**Q.** What about the “Maximum activation (% vs GCG)” value of the same binder?
**A.** 100%

**Q.** With B10 as the binder, how does the “Maximum activation (% vs GCG)” value read?
**A.** 98.3%

**Q.** For B11, which “Maximum activation (% vs GCG)” value is on record?
**A.** 99.4%
